Measurements reported in patent US20250295799A1 (Zymeworks, published 2025).
Substitutions are numbered along the chain they refer to.

B1: v36180-MC-GGFG-AM-Compound 139 (DAR8) (antibody, human IgG1, kappa, V domains shown)
VH: EVQLVQSGAEVKKPGSSVKVSCKASGYTFTDYEMHWVRQAPGQGLEWIGAIDPETGDTAYNQKFKGRATLTADKSTSTAYMELSSLRSEDTAVYYCTRYFSFAYWGQGTLVTVSS
VL: DVQMTQSPSSVSASVGDRVTITCRSSQSLRHSNGNTYLQWYQQKPGKAPKLLIYKVSNRFSGVPSRFSGSGSGTDFTLTISSLQPEDFATYFCYQSKHVPYTFGQGTKVEIKR
modifications: MC-GGFG-AM-Compound 139 drug-linker on reduced cysteines, sites not stated; MC-GGFG-AM-Compound 139 drug-linker on reduced cysteines, sites not stated; DAR 8 for the whole antibody
B2: v36180-MC-GGFG-Compound 141 (DAR8) (antibody, human IgG1, kappa, V domains shown)
VH: B1 VH
VL: B1 VL
modifications: MC-GGFG-Compound 141 drug-linker on reduced cysteines, sites not stated; MC-GGFG-Compound 141 drug-linker on reduced cysteines, sites not stated; DAR 8 for the whole antibody
B3: v36180-MC-GGFG-AM-Compound 141 (DAR8) (antibody, human IgG1, kappa, V domains shown)
VH: B1 VH
VL: B1 VL
modifications: MC-GGFG-AM-Compound 141 drug-linker on reduced cysteines, sites not stated; MC-GGFG-AM-Compound 141 drug-linker on reduced cysteines, sites not stated; DAR 8 for the whole antibody
B4: M3-H18L6 (WT) mAb, v38592 (antibody, human IgG1, kappa)
heavy: not shown
light: EIVLTQSPATLSLSPGERATISCRSSQSLRHSNGNTYLQWYQQKPGQAPRLLIYKVSNRFSGVPARFSGSGSGTDFTLTISSLEPEDFAVYFCYQSKHVPYTFGGGTKVEIKRTVAAPSVFIFPPSDEQLKSGTASVVCLLNNFYPREAKVQWKVDNALQSGNSQESVTEQDSKDSTYSLSSTLTLSKADYEKHKVYACEVTHQGLSSPVTKSFNRGEC
notes: Full-size IgG1/kappa; also called wild-type M3-H18L6; M3-H18L6 with HC C-terminal lysine
B5: v40206, H18L6_LC_G34R mAb (antibody, human IgG1, kappa, V domains shown)
VH: B1 VH with E1Q, R38K, Q43H, R67K, K74T
VL: EIVLTQSPATLSLSPGERATISCRSSQSLRHSNRNTYLQWYQQKPGQAPRLLIYKVSNRFSGVPARFSGSGSGTDFTLTISSLEPEDFAVYFCYQSKHVPYTFGGGTKVEIKR
B6: v40207, H18L6_LC_G34K mAb (antibody, human IgG1, kappa, V domains shown)
VH: B1 VH with E1Q, R38K, Q43H, R67K, K74T
VL: B5 VL with R34K
B7: v40208, H18L6_LC_G34Q mAb (antibody, human IgG1, kappa, V domains shown)
VH: B1 VH with E1Q, R38K, Q43H, R67K, K74T
VL: B5 VL with R34Q
B8: v40209, H18L6_LC_G34T mAb (antibody, human IgG1, kappa, V domains shown)
VH: B1 VH with E1Q, R38K, Q43H, R67K, K74T
VL: B5 VL with R34T
notes: no number given for this variant
B9: v40210, H18L6_LC_G34S mAb (antibody, human IgG1, kappa, V domains shown)
VH: B1 VH with E1Q, R38K, Q43H, R67K, K74T
VL: B5 VL with R34S
notes: as for B8
B10: v40211, H18L6_LC_G34V mAb (antibody, human IgG1, kappa, V domains shown)
VH: B1 VH with E1Q, R38K, Q43H, R67K, K74T
VL: B5 VL with R34V
notes: as for B8
B11: v40212, H18L6_LC_G34A mAb (antibody, human IgG1, kappa, V domains shown)
VH: B1 VH with E1Q, R38K, Q43H, R67K, K74T
VL: B5 VL with R34A
notes: as for B8
B12: v40213, H18L6_LC_N33E mAb (antibody, human IgG1, kappa, V domains shown)
VH: B1 VH with E1Q, R38K, Q43H, R67K, K74T
VL: B5 VL with N33E, R34G
notes: as for B8
B13: v40214, H18L6_LC_N33T mAb (antibody, human IgG1, kappa, V domains shown)
VH: B1 VH with E1Q, R38K, Q43H, R67K, K74T
VL: B5 VL with N33T, R34G
notes: as for B8
B14: v40215, H18L6_LC_N33V mAb (antibody, human IgG1, kappa, V domains shown)
VH: B1 VH with E1Q, R38K, Q43H, R67K, K74T
VL: B5 VL with N33V, R34G
notes: as for B8
B15: v40216, H18L6_LC_N33R mAb (antibody, human IgG1, kappa, V domains shown)
VH: B1 VH with E1Q, R38K, Q43H, R67K, K74T
VL: B5 VL with N33R, R34G
notes: as for B8
B16: v40217, H18L6_LC_N33K mAb (antibody, human IgG1, kappa, V domains shown)
VH: B1 VH with E1Q, R38K, Q43H, R67K, K74T
VL: B5 VL with N33K, R34G
notes: as for B8
B17: v40218, H18L6_LC_N33H mAb (antibody, human IgG1, kappa, V domains shown)
VH: B1 VH with E1Q, R38K, Q43H, R67K, K74T
VL: B5 VL with N33H, R34G
notes: as for B8
B18: v40219, H18L6_LC_N33A mAb (antibody, human IgG1, kappa, V domains shown)
VH: B1 VH with E1Q, R38K, Q43H, R67K, K74T
VL: B5 VL with N33A, R34G
notes: as for B8
B19: v40220, H18L6_LC_N33Q mAb (antibody, human IgG1, kappa, V domains shown)
VH: B1 VH with E1Q, R38K, Q43H, R67K, K74T
VL: B5 VL with N33Q, R34G
notes: as for B8
B20: v40221, H18L6_LC_N33S mAb (antibody, human IgG1, kappa, V domains shown)
VH: B1 VH with E1Q, R38K, Q43H, R67K, K74T
VL: B5 VL with N33S, R34G
notes: as for B8

molecular target: human GPC3 on cells (human, UniProt P51654 25-554); assay: cell-based or functional assay
Throughout, for JHH-5 Internalization (MFI), Day 0 in mouse plasma: test concentration or dose not given here.
Throughout, for JHH-5 Internalization (MFI), Day 14 in mouse plasma: test concentration or dose not given here.
Throughout, for JHH-5 Internalization (MFI): test concentration or dose not given here.
Throughout, for JHH-7 Internalization (MFI), Day 0 in mouse plasma: test concentration or dose not given here.
Throughout, for JHH-7 Internalization (MFI), Day 14 in mouse plasma: test concentration or dose not given here.
Throughout, for JHH-7 Internalization (MFI): test concentration or dose not given here.

Compared with B1, B2 is 3-fold lower in “EC50 (nM), cytotoxicity, 2D monolayer, HepG2 (High)” value: 0.09 nM for the first, 0.03 nM for the second.

In the case of B3, the “EC50 (nM), cytotoxicity, 2D monolayer, HepG2 (High)” value is reported as 0.03 nM.

First: B1
Second: B2
The “EC50 (nM), cytotoxicity, 2D monolayer, Huh-7 (Mid)” value of the first is 3-fold lower: 0.01 nM for the first, 0.03 nM for the second.

B3 was tested, and the “EC50 (nM), cytotoxicity, 2D monolayer, Huh-7 (Mid)” value was 0.01 nM.

B1 and B2 are within 1.5-fold of each other in “EC50 (nM), cytotoxicity, 2D monolayer, JHH-5 (Mid)” value: 0.14 nM for the first, 0.11 nM for the second.

For B3, the “EC50 (nM), cytotoxicity, 2D monolayer, JHH-5 (Mid)” value was 0.08 nM.

Compared with B1, B2 is 33-fold lower in “EC50 (nM), cytotoxicity, 2D monolayer, JHH-7 (High)” value: 1 nM for the first, 0.03 nM for the second.

In the case of B3, the “EC50 (nM), cytotoxicity, 2D monolayer, JHH-7 (High)” value is reported as 0.02 nM.

B2 and B3 are the same in “EC50 (nM), cytotoxicity, 2D monolayer, Huh-6 (Mid)” value: 0.12 nM for the first, 0.12 nM for the second.

molecular target: T1, human glypican-3 (GPC3) (human, UniProt P51654 25-554); assay: cell-based or functional assay

In the case of B4, the “JHH-5 Internalization (MFI)” value is reported as 10500 MFI.

B4 was tested, and the “JHH-7 Internalization (MFI)” value was 7260 MFI.

molecular target: T1, human glypican-3 (GPC3); assay: cell-based or functional assay; remark: another data set of the same source

For B4, the “JHH-5 Internalization (MFI), Day 0 in mouse plasma” value was 12200 MFI.

With B4 the “JHH-5 Internalization (MFI), Day 14 in mouse plasma” value was 7250 MFI.

In the case of B4, the “JHH-7 Internalization (MFI), Day 0 in mouse plasma” value is reported as 152 MFI.

In the case of B4, the “JHH-7 Internalization (MFI), Day 14 in mouse plasma” value is reported as 76 MFI.

molecular target: T1, human glypican-3 (GPC3); assay: flow cytometry on JHH-5 cells (GPC3-mid);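 note: antibody binding to cells at 4 °C for 24 h, detected with anti-human AF647 as geometric mean fluorescence of live cells versus antibody concentration, fitted by specific binding with Hill slope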
Procedure: (§1) Briefly, cells were seeded at 50,000 cells/well in V-bottom 96-well plates and treated with antibody for 24 hours at 4° C. to prevent internalization. […] Following incubation and washing, fluorescence was detected by flow cytometry on a BD LSRFortessa™ Cell Analyzer (BD Biosciences, Franklin Lake, NJ) with 1,000 minimum events collected per well. AF647/APC-A GeoMean (fluorescence signal geometric mean, proportional to anti-Human AF647 binding) in live cell population was plotted against antibody concentration using GraphPad Prism Version 9 (GraphPad Software, San Diego, CA). The Bmax, Curve Hill Slope (h) and Kd values were derived from the “Specific binding with Hill slope” nonlinear regression curve fit in GraphPad Prism Version 9.

For B4, the “Bmax (MFI)” value was 4670 MFI.

For B4, the Kd was 0.12 nM.

molecular target: T1, human glypican-3 (GPC3); assay: flow cytometry on JHH-7 cells (GPC3-high);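 note: antibody binding at 4 °C for 24 h, detected with anti-human AF647 secondary, geometric mean fluorescence of live cells versus antibody concentration, fitted as specific binding with Hill slope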
Procedure: as §1

With B4 the “Bmax (MFI)” value was 14100 MFI.

With B4 the Kd was 0.42 nM.

molecular target: T2, recombinant cynomolgus GPC3 (glypican-3) (cynomolgus monkey, UniProt A0A2K5VK50 24-558); assay: SPR; Kd on human GPC3 divided by Kd on cynomolgus GPC3
T2 construct: also called cynoGPC3
Procedure: (§2) CM5 Series S sensor chip, Biacore™ amine coupling kit (NHS, EDC and 1 M ethanolamine), and 10 mM sodium acetate buffers were purchased from Cytiva Life Sciences (Mississauga, ON, Canada). PBS running buffer with 0.05% Tween20 (PBST) was purchased from Teknova Inc. (Hollister, CA). Antigens: recombinant human and cynomolgus GPC3 was purchased from ACROBiosystems (Newark, DE) and SEC purified on a Superdex 200 10/300 GL column (Cytiva) in PBST running buffer at 0.8 mL/min.
(§3) Screening of the antibodies for binding to GPC3 antigen was conducted via anti-Fc capture of antibodies, followed by the injection of five concentrations of GPC3. The anti-Fc surface was prepared on a CM5 Series S sensor chip by standard amine coupling methods as described by the manufacturer (Cytiva Life Sciences, Mississauga, ON, Canada). […] Approximately 150-400 RUs of each antibody (5-20 μg/mL) were captured on the goat anti-human IgG surface by injecting at 10 μL/min for 60s. Using single-cycle kinetics, five concentrations of a two-fold dilution series of human or cynomolgus GPC3 starting at 40 nM, 20 nM, 10 nM, or 5 nM depending on the antibody, with a blank buffer control were injected at 20 μL/min for 180s of contact time, followed by 180 s dissociation phase, resulting in sensorgrams with a buffer blank reference. The anti-Fc surface was regenerated to prepare for the next injection cycle by one pulse of 10 mM glycine/HCl pH 1.5 for 120 s at 40 μL/min. Blank-subtracted sensorgrams were analyzed and fit to the 1:1 Langmuir binding model using Biacore™ T200 Evaluation Software v3.2.

Compared with B5, B6 is higher in “Kd Fold difference (hu/cyno)” value: 1.55 fold for the first, 1.58 fold for the second.

Going from B7 to B8, the “Kd Fold difference (hu/cyno)” value rises from 1.48 fold to 1.53 fold.

Compared with B9, B10 is lower in “Kd Fold difference (hu/cyno)” value: 1.56 fold for the first, 1.13 fold for the second.

Compared with B11, B12 is lower in “Kd Fold difference (hu/cyno)” value: 1.61 fold for the first, 1.37 fold for the second.

Compared with B13, B14 is higher in “Kd Fold difference (hu/cyno)” value: 1.21 fold for the first, 1.27 fold for the second.

Going from B15 to B16, the “Kd Fold difference (hu/cyno)” value falls from 1.82 fold to 1.3 fold.

First: B17
Second: B18
The “Kd Fold difference (hu/cyno)” value of the first is higher: 2.1 fold for the first, 1.77 fold for the second.

Compared with B19, B20 is higher in “Kd Fold difference (hu/cyno)” value: 1.12 fold for the first, 1.24 fold for the second.

molecular target: T1, human glypican-3 (GPC3); assay: flow cytometry on CHO-S cells transfected with human GPC3;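 note: antibody binding to transiently transfected CHO-S cells after 24 hours at 4 °C, read as geometric mean fluorescence of anti-human AF647 in live cells, fitted against antibody concentration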

B4 was tested, and the “Bmax (MFI)” value was 2530 MFI.

Binder B4 has a Kd of 0.14 nM.

molecular target: T3, cynomolgus monkey glypican-3 (GPC3) (cynomolgus monkey, UniProt A5A6P7 25-554 (Pan troglodytes entry)); assay: flow cytometry on CHO-S cells transfected with cynomolgus GPC3;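 note: antibodies incubated 24 h at 4 °C with transiently transfected cells, binding read as AF647 geometric mean fluorescence of live cells, GFP-transfected cells as negative control, Hill-slope specific-binding fit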
T3 construct: Transiently expressed on CHO-S cells; also called cynoGPC3; CynoGPC3-CHO

For B4, the “Bmax (MFI)” value was 3150 MFI.

For B4, the Kd was 0.19 nM.

molecular target: T1, human glypican-3 (GPC3); assay: flow cytometry on JHH-5 cells; antibody in mouse plasma, day 0
Procedure: (§4) For binding cells were seeded at 50,000 cells/well in V-bottom 96-well plates and treated with antibody for 24 hours at 4° C. to prevent internalization. […] Following incubation and washing, fluorescence was detected by flow cytometry on a BD LSRFortessa™ Cell Analyzer (BD Biosciences, Franklin Lake, NJ) with 1,000 minimum events collected per well. AF647/APC-A GeoMean (fluorescence signal geometric mean, proportional to anti-Human AF647 binding) in live cell population was plotted against antibody concentration using GraphPad Prism Version 9 (GraphPad Software, San Diego, CA). The Bmax, Curve Hill Slope (h) and Kd values were derived from the “Specific binding with Hill slope” nonlinear regression curve fit in GraphPad Prism Version 9.

With B4 the “Bmax (MFI)” value was 5130 MFI.

B4 gave a Kd of 0.14 nM.

molecular target: T1, human glypican-3 (GPC3); assay: flow cytometry on JHH-7 cells; antibody in mouse plasma, day 0
Procedure: as §4

In the case of B4, the “Bmax (MFI)” value is reported as 9770 MFI.

B4 showed a Kd of 0.39 nM.

molecular target: T4, recombinant human GPC3 (glypican-3) (human, UniProt P51654 25-559); assay: SPR (Biacore T200), antibody captured by anti-Fc, GPC3 injected
T4 construct: also called huGPC3; hGPC3
Procedure: as §2, §3

Compared with B5, B6 is higher in “Avg % binding huGPC3 (RU observed/theoretical)” value: 42% for the first, 42.2% for the second.

Compared with B7, B8 is lower in “Avg % binding huGPC3 (RU observed/theoretical)” value: 46.3% for the first, 43.6% for the second.

Going from B9 to B10, the “Avg % binding huGPC3 (RU observed/theoretical)” value falls from 42.8% to 23.4%.

Going from B11 to B12, the “Avg % binding huGPC3 (RU observed/theoretical)” value falls from 42.5% to 14.9%.

Going from B13 to B14, the “Avg % binding huGPC3 (RU observed/theoretical)” value falls from 21.3% to 17.5%.

Going from B15 to B16, the “Avg % binding huGPC3 (RU observed/theoretical)” value falls from 15.8% to 15.5%.

Compared with B17, B18 is higher in “Avg % binding huGPC3 (RU observed/theoretical)” value: 15.6% for the first, 17.4% for the second.

Compared with B19, B20 is higher in “Avg % binding huGPC3 (RU observed/theoretical)” value: 16.1% for the first, 18% for the second.

molecular target: T4, recombinant human GPC3 (glypican-3); assay: SPR (Biacore T200), antibody captured by anti-Fc, GPC3 injected, single-cycle kinetics, 1:1 fit; average
Procedure: as §2, §3

B5 and B6 are within 1.5-fold of each other in Kd: 11.9 nM for the first, 11.5 nM for the second.

B7 and B8 are within 1.5-fold of each other in Kd: 10.6 nM for the first, 11.3 nM for the second.

Compared with B9, B10 is 2-fold higher in Kd: 10.3 nM for the first, 21 nM for the second.

First: B11
Second: B12
The Kd of the first is 1.8-fold lower: 12.5 nM for the first, 22.7 nM for the second.

B13 and B14 are within 1.5-fold of each other in Kd: 19.9 nM for the first, 22.5 nM for the second.

B15 and B16 are within 1.5-fold of each other in Kd: 20.1 nM for the first, 18.2 nM for the second.

B17 and B18 are within 1.5-fold of each other in Kd: 20.1 nM for the first, 18.3 nM for the second.

B19 and B20 are within 1.5-fold of each other in Kd: 17.5 nM for the first, 19.5 nM for the second.

molecular target: T2, recombinant cynomolgus GPC3 (glypican-3); assay: as above
Procedure: as §2, §3

B5 and B6 are within 1.5-fold of each other in Kd: 7.67 nM for the first, 7.29 nM for the second.

B7 and B8 are within 1.5-fold of each other in Kd: 7.18 nM for the first, 7.43 nM for the second.

Going from B9 to B10, the Kd rises from 6.58 nM to 18.5 nM (2.8-fold).

Compared with B11, B12 is 2.1-fold higher in Kd: 7.78 nM for the first, 16.6 nM for the second. The first binds more tightly here.

B13 and B14 are within 1.5-fold of each other in Kd: 16.4 nM for the first, 17.8 nM for the second.

B15 and B16 are within 1.5-fold of each other in Kd: 11.1 nM for the first, 14 nM for the second.

B17 and B18 are within 1.5-fold of each other in Kd: 9.57 nM for the first, 10.4 nM for the second.

B19 and B20 are within 1.5-fold of each other in Kd: 15.7 nM for the first, 15.8 nM for the second.
